Tests used:
cyno FRα [1] = test: HTRF antigen (IgG) binding assay; parameters: species or system cynomolgus monkey; details: hybridoma supernatant, 1 nM biotinylated antigen; binder >30% delta F
Experimental: (§1) The negative control ratio was derived from nonspecific binding (NSB) control wells. Curves were analysed using GraphPad Prism software using a four-parameter logistic curve-fitting equation.

[2] = Accelerated thermal stability assay, HP-SEC; assay type: physicochemical; details: 2 weeks, 1 mg/ml in PBS
Experimental: IgG were diluted to 1 mg/ml in PBS then incubated at 4° C. or 45° C. for 2 weeks then filtered using filter spin columns (Millipore, UFC30HVNB). High performance-size exclusion chromatography (HP-SEC) was performed by loading 70 μl of IgG onto a TSKgel G3000SWXL; 5 μm, 7.8 mm×300 mm column using a flow rate of 1 ml/min and 0.1 M sodium phosphate dibasic anhydrous and 0.1 M sodium sulphate, pH 6.8 as the isocratic running buffer. Larger molecules are excluded from the pores of the size exclusion column to a greater extent than smaller molecules, and therefore elute earlier. Peaks eluting earlier than the monomer peak are recorded as aggregates. Peaks eluting after the monomer peak (excluding the buffer-related peak) are recorded as fragments. In parallel, antibodies were profiled in the HTRF epitope competition assay for changes in potency.

human FRα [3] = biological target: T1, human FRα (Homo sapiens, UniProt P15328); test: HTRF epitope competition assay with Comparator 2 IgG; assay type: binding; details: n > 2; human IgG1 format
T1 construct: CD33 leader (signal peptide) (N, cleaved yes); made in house; host or cells: in-house suspension-adapted CHO cell line
T1 sequence (P15328 with tags, fused parts or gaps): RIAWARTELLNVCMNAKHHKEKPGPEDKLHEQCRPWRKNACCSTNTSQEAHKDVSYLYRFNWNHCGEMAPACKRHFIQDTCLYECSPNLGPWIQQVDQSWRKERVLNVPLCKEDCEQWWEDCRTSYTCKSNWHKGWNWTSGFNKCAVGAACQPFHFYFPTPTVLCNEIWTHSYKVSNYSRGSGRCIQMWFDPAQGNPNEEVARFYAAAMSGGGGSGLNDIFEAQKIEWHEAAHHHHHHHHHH
Experimental: (§2) HTRF epitope competition assays were set up using a titration of test IgG, 1 nM streptavidin cryptate, biotinylated human FRα and DyLight 650 labelled IgG to assay volume of 10 μl. For the Comparator Antibody 1 and Comparator Antibody 2 assays, 0.5 nM biotinylated human FRα and 0.5 nM DyLight 650 labelled Comparator Antibody 1 or Comparator Antibody 2 was used. […] Assay plates were incubated for 3-4 h at room temperature prior to fluorescence measurement.

human FRα [4] = biological target: T1, human FRα; test: Biacore T200 surface plasmon resonance affinity; assay type: binding; details: SPR 25° C.
Experimental: (§3) Protein A was covalently immobilised to a CM5 chip surface using standard amine coupling techniques at a concentration of 50 μg/ml in 10 mM Sodium acetate, pH 4.0. The antibody was captured onto the Protein A surface in HBS-EP+ buffer, pH 7.4 at 10 μl/min to enable FRα ECD binding. The FRα ECD was serially diluted (0.4 nM-100 nM human FRα ECD; 0.8 nM-200 nM cyno FRα ECD; 30 nM-4000 nM mouse FRα ECD and rat FRα ECD) in HBS-EP+ buffer, pH 7.4 and flowed over the chip at 50 μl/min, with 2 minutes association and 8 minutes dissociation. The chip surface was fully regenerated with pulses of 3 M MgCl2 to remove captured antibody together with any bound FRα ECD. Multiple buffer-only injections were made under the same conditions to allow for double reference subtraction of the final sensorgram sets, which were analysed using Biacore T200 Evaluation Software to derive equilibrium dissociation constants.

cyno FRα [5] = test: Biacore T200 surface plasmon resonance affinity; assay type: binding, cynomolgus monkey; details: SPR 25° C.
Experimental: as §3

[6] = Pharmacokinetics of anti-FRα antibodies in wild-type SCID mice; assay type: in vivo, mouse; details: 5 mg/kg iv bolus, total antibody
Experimental: Pharmacokinetic parameters were determined using Phoenix 64 software (Certara).
Plasma antibody concentrations were determined by the universal ELISA IgG assay.

human FRα [7] = biological target: T1, human FRα; test: HTRF antigen (IgG) binding assay; details: hybridoma supernatant, 1 nM biotinylated antigen; binder >30% delta F
Experimental: as §1

mouse FRα = biological target: T2, mouse FRα (Mus musculus, UniProt P35846); test: HTRF antigen (IgG) binding assay; details: hybridoma supernatant, 1 nM biotinylated antigen; binder >30% delta F
T2 construct: CD33 signal peptide (N, cleaved yes); made in house
T2 sequence (P35846 with tags, fused parts or gaps): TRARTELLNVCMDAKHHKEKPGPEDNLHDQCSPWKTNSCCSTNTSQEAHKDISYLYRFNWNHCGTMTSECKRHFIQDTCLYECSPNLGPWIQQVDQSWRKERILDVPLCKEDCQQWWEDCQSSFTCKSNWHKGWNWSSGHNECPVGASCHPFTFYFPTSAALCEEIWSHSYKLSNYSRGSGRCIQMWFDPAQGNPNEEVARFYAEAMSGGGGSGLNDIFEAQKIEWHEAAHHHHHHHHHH
Experimental: as §1

human FRβ = biological target: T3, human FRβ (Homo sapiens, UniProt P14207); test: HTRF antigen (IgG) binding assay; details: hybridoma supernatant, 1 nM biotinylated antigen; binder >30% delta F
T3 construct: CD33 signal peptide (N, cleaved yes); made in house
T3 sequence (P14207 with tags, fused parts or gaps): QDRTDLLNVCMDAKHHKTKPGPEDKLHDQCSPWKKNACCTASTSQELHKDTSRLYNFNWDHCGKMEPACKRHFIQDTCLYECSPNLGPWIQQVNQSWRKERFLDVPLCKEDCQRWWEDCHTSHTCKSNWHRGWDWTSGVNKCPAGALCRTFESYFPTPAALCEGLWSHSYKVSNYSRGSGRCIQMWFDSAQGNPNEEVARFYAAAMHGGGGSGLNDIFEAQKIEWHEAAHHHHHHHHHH
Experimental: as §1

human FRγ = biological target: T4, human FRγ (Homo sapiens, UniProt P41439); test: HTRF antigen (IgG) binding assay; details: hybridoma supernatant, 1 nM biotinylated antigen; binder >30% delta F
T4 construct: CD33 signal peptide (N, cleaved yes); made in house
T4 sequence (P41439 with tags, fused parts or gaps): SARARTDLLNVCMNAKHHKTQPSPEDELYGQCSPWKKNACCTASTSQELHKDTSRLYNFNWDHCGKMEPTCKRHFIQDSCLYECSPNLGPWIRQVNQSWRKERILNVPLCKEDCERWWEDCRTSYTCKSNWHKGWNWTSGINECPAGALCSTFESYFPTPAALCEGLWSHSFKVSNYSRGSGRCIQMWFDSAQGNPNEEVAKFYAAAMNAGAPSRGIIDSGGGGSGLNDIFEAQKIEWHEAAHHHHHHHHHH
Experimental: as §1

[8] = Hydrophobic interaction chromatography (HIC) HPLC; assay type: physicochemical; details: higher retention = more hydrophobic
human FRα [9] = biological target: T1, human FRα; test: HTRF epitope competition assay with Comparator 1 IgG; assay type: binding; details: n > 2; human IgG1 format
Experimental: as §2

human FRα [10] = biological target: T1, human FRα; test: HTRF epitope competition assay with Comparator 3 IgG; assay type: binding; details: n > 2; human IgG1 format
Experimental: as §2

Chain of cyno FRα (as listed by the source): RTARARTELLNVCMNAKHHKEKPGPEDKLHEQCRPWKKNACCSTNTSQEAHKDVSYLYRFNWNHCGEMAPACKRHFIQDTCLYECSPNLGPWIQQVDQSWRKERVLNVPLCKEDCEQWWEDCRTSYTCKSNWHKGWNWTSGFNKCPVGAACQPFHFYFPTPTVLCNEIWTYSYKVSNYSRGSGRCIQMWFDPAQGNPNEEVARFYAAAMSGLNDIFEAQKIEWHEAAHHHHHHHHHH

HTRF IgG binding assay (% Delta F) Cyno FRα (cyno FRα [1]) [% Delta F]	HTRF epitope competition assay, geomean IC50 (M), Comparator 2 IgG (human FRα [3])	ka (human FRα [4]) [M⁻¹ s⁻¹]	kd (human FRα [4]) [s⁻¹]	kd (cyno FRα [5]) [s⁻¹]	HTRF IgG binding assay (% Delta F) Human FRα (human FRα [7]) [% Delta F]	HTRF IgG binding assay (% Delta F) Mouse FRα (mouse FRα) [% Delta F]	HTRF IgG binding assay (% Delta F) Human FRβ (human FRβ) [% Delta F]	HTRF IgG binding assay (% Delta F) Human FRγ (human FRγ) [% Delta F]	HTRF epitope competition assay, geomean IC50 (M), Comparator 1 IgG (human FRα [9])	HTRF epitope competition assay, geomean IC50 (M), Comparator 3 IgG (human FRα [10])	Molecule	HP SEC % monomer ([2]; 4° C.) [%]	HP SEC % monomer ([2]; 45° C.) [%]	ka (cyno FRα [5]) [M⁻¹ s⁻¹]	AUClast [6] [µg·days/mL]	CL [6] [mL/day/kg]	Cmax [6] [µg/mL]	Vss [6] [L/kg]	t1/2 [6] [days]	Retention time by HIC-HPLC [8] [min]
85.33	inhibited	95700	0.00129	0.00183	126.25	−5.66	−5.87	−1.17	inhibited	no inhibition	AB1370095: anti-FRα fully human IgG1 antibody; VH SEQ ID NO: 45, VL SEQ ID NO: 46 (antibody, V domains shown) VH: EVQLVESGGGLVKPGGSLRLSCAASGFTFSSYSMNWVRQAPGKGLEWVSSISSRSSYVYYADSVKGRFTISRDNAKNSLYLQMNSLRAEDTAVYYCARGMTTLTFDYWGQGTLVTVSS VL: DIQMTQSPSSLSASVGDRVTITCRASQGISSFLAWFQQKPGKAPKSLIYAASSLQSGVPSKFSGSGSGTDFTLTISSLQPEDFATYYCQQYNSYPLTFGGGTKVEIK	99.2	96.6	95800	646	6.6	123.2	0.071	7.8	2.12
85.16	inhibited	145000	0.000135	0.00016	139.98	−3.65	3.81	−2.92	inhibited	no inhibition	AB1370083: anti-FRα fully human IgG1 antibody; VH SEQ ID NO: 43, VL SEQ ID NO: 44 (antibody, V domains shown) VH: EVQLVESGGGLVKPGGSLRLSCAASGFTFSSYNMNWVRQAPGKGLEWVSSISSGSSYIYYADSMKGRFTISRDNAKNSLFLQMNSLRAEDTAVYYCARGMTTLTFDYWGQGTLVTVSS VL: DIQMTQSPSSLSASVGDRVTITCRASQGISTFLAWFQQKPGKAPKSLIYAASSLQSGVPSKFSGSGSETDFTLTISSLQPEDFATYYCQQYISYPLTFGGGTKVEIK	99.6	98.3	101000	430	8.6	86.0	0.132	11.0	2.27

Further lines, the molecule ahead of its results:

Molecule	HTRF IgG binding assay (% Delta F) Cyno FRα (cyno FRα [1]) [% Delta F]	HTRF epitope competition assay, geomean IC50 (M), Comparator 2 IgG (human FRα [3])	ka (human FRα [4]) [M⁻¹ s⁻¹]	kd (human FRα [4]) [s⁻¹]	kd (cyno FRα [5]) [s⁻¹]	HTRF IgG binding assay (% Delta F) Human FRα (human FRα [7]) [% Delta F]	HTRF IgG binding assay (% Delta F) Mouse FRα (mouse FRα) [% Delta F]	HTRF IgG binding assay (% Delta F) Human FRβ (human FRβ) [% Delta F]	HTRF IgG binding assay (% Delta F) Human FRγ (human FRγ) [% Delta F]	HTRF epitope competition assay, geomean IC50 (M), Comparator 1 IgG (human FRα [9])	HTRF epitope competition assay, geomean IC50 (M), Comparator 3 IgG (human FRα [10])	HP SEC % monomer ([2]; 4° C.) [%]	HP SEC % monomer ([2]; 45° C.) [%]	ka (cyno FRα [5]) [M⁻¹ s⁻¹]	AUClast [6] [µg·days/mL]	CL [6] [mL/day/kg]	Cmax [6] [µg/mL]	Vss [6] [L/kg]	t1/2 [6] [days]	Retention time by HIC-HPLC [8] [min]
AB1370026: anti-FRα fully human IgG1 antibody; VH SEQ ID NO: 39, VL SEQ ID NO: 40 (antibody, V domains shown) VH: EVQLVESGGGLVKPGGSLRLSCAASGFTFSSYAMSWVRQAPGKGLEWVSSISSGRSYIYYADSVKGRFTISRDNAKNSLYLKMNSLRDEDTAVYYCAREMQQLALDYWGQGTLVTVSS VL: DIQMTQSPSSLSASVGDRVTITCRASQGISNFLAWFQQAPGKAPKSLIYAASSLQSGVPSKFSGSGSGTDFTLTISSLQPEDFATYYCQQYNSYPFTFGQGTKLEIK	213.68	inhibited	279000	0.000354	0.000342	270.58	1.63	−0.38	1.31	inhibited	no inhibition	100	97.3	195000	553	5.3	91.7	0.124	16.6	1.96
AB1370035: anti-FRα fully human IgG1 antibody; VH SEQ ID NO: 41, VL SEQ ID NO: 42 (antibody, V domains shown) VH: QVQLQQSGPGLVKPSQTLSLTCAISGDSVSSNSAAWNWIRQSPSRGLEWLGRTYYRSNWYNDYTLSVKSRITVNPDTSKNQFSLQLNSVTPEDTAVYYCVRGVGRFDSWGQGTLVTVSS VL: DIQMTQSPSTLSASVGDRVIITCRASQSISSWLAWYQQKPGKAPKLLIYKASSLESGVPSRFSGSGSGTEFTLTITSLQPDDFASYYCQEYKTYSIFTFGPGTKVDIK	141.47	inhibited	568000	0.000527	0.000508	225.19	−5.22	−3.26	9.2	inhibited	inhibited	100	97.3	475000	455	5.6	73.2	0.16	19.5	2.25

From patent US20230295293A1, “BINDING MOLECULES AGAINST FRa” (AstraZeneca AB, priority 2022, published 2023)
